# Results from patent US11419921B2, “Methods of treating neurological disorders” (EnClear Therapies, Inc., priority 2018, dated 2022).
# B1: Immobilized trypsin: Immobilized TPCK-trypsin on agarose resin; ThermoFisher Cat #20230 (protein, UniProt P00760 24-246, looked up)
# Serine protease 1: IVGGYTCGANTVPYQVSLNSGYHFCGGSLINSQWVVSAAHCYKSGIQVRLGEDNINVVEGNEQFISASKSIVHPSYNSNTLNNDIMLIKLKSAASLNSRVASISLPTSCASAGTQCLISGWGNTKSSGTSYPDVLKCLKAPILSDSSCKSAYPGQITSNMFCAGYLEGGKDSCQGDSGGPVVCSGKLQGIVSWGSGCAQKNKPGVYTKVCNYVSWIKQTIASN
# modifications: TPCK-treated, immobilized on agarose resin
# B2: TPCK-trypsin: TPCK-trypsin; ThermoFisher Cat #20233 (protein, UniProt P00760 24-246, looked up)
# Serine protease 1: B1 Serine protease 1
# modifications: TPCK-treated
# B3: resins having immobilized clostripain: clostripain immobilized on agarose resin (protein, UniProt P09870 51-181; P09870 191-526, looked up)
# Clostripain light chain: NKNQKVTIMYYCDADNNLEGSLLNDIEEMKTGYKDSPNLNLIALVDRSPRYSSDEKVLGEDFSDTRLYKIEHNKANRLDGKNEFPEISTTSKYEANMGDPEVLKKFIDYCKSNYEADKYVLIMANHGGGAR
# Clostripain heavy chain: AICWDDSNLDKNGEADCLYMGEISDHLTEKQSVDLLAFDACLMGTAEVAYQYRPGNGGFSADTLVASSPVVWGPGFKYDKIFDRIKAGGGTNNEDDLTLGGKEQNFDPATITNEQLGALFVEEQRDSTHANGRYDQHLSFYDLKKAESVKRAIDNLAVNLSNENKKSEIEKLRGSGIHTDLMHYFDEYSEGEWVEYPYFDVYDLCEKINKSENFSSKTKDLASNAMNKLNEMIVYSFGDPSNNFKEGKNGLSIFLPNGDKKYSTYYTSTKIPHWTMQSWYNSIDTVKYGLNPYGKLSWCKDGQDPEINKVGNWFELLDSWFDKTNDVTGGVNHYQW
# modifications: immobilized on agarose resin
# Assays:
# [1] = test system: (GR)10; assay: Cleavage of (GR)10 by commercial immobilized trypsin (agarose resin) in PBS; assay type: biochemical; conditions: (GR)10 50 μM
# Method: • Immobilized TPCK-trypsin on agarose resin; ThermoFisher Cat #20230 Lot #TA264999; Activity: 555 TAME units/mL of gel; the resin was washed with PBS • TPCK-trypsin; ThermoFisher Cat #20233 Lot #SB241185; Activity: 308 TAME units/mg of protein • NOTE: One TAME unit is equal to 1 μmole of TAME (p-toluenesulfonyl-L-arginine methyl ester in the presence of Ca2+) hydrolyzed/min at pH 8.2, 25° C. (One TAME unit=19.2 National Formulatory units=57.5 BAEE units
# 110 μL of 50 μM (GR)10 dipeptide repeats prepared in PBS was added to immobilized trypsin in 0.8 mL centrifuge columns and incubated for the prescribed time at room temperature with end-to-end mixing resin. Columns were spun down 1 minute at 1,000 Xg to recover digested GR dipeptides. Columns were washed with 110 μL of PBS to increase (GR)10 recovery. 100 μL of each samples were transferred to a new tube and 5 μL of 10% TFA followed by 300 μL of Dilution Solution were added. The reaction mixtures were analyzed by LC/MS to determine the concentration of GR repeats of different lengths.
# [2] = 1 TAME unit = 1 μmole TAME hydrolyzed/min at pH 8.2, 25° C.; cited from earlier work
# [3] = test system: iCell® motor neurons; assay: Toxicity of (GR)10, untreated or protease-treated, on iCell motor neurons; assay type: cell-based; conditions: (GR)10 concentrations of 25, 50 and 100 μM
# Method: 200 μM of (GR)10 were diluted in human cerebrospinal fluid (CSF) and 400 μL were applied to each immobilized proteases. The reaction was incubated 5 minutes at room temperature with end-to-end mixing. Columns were spun down 1 minute at 1,000 Xg to recover digested GR dipeptides. Columns were washed with 12 resin volumes of PBS. The procedure was repeated with 60 minutes digestion time. 100 μL of each samples were transferred to a clean tube, flash-frozen and subsequently used for LC/MS quantification of GR repeats of different lengths. The remaining 300 μL of each samples were flash-frozen and used to assess neuron toxicity.
# 300 μL of CSF were applied to each immobilized proteases and incubated 60 minutes at room temperature with end-to-end mixing. Columns were spun down 1 minute at 1,000 Xg to recover treated CSF. Samples were flash-frozen and subsequently used to test neuron toxicity.
# This example describes the reduced toxicity of (GR)10 on in vitro neuronal cells by digestion of (GR)10 with proteases.
molecule,measurement,setting,value
B1,(GR)1 concentration,"[1]; 0.625 TAME Units, 0 min",BLQ
same,(GR)2 concentration,"[1]; 0.625 TAME Units, 0 min",BLQ
same,(GR)4 concentration,"[1]; 0.625 TAME Units, 0 min",0.1 µM
same,(GR)6 concentration,"[1]; 0.625 TAME Units, 0 min",BLQ
same,(GR)8 concentration,"[1]; 0.625 TAME Units, 0 min",1.0 µM
same,(GR)10 concentration,"[1]; 0.625 TAME Units, 0 min",68.4 µM
same,(GR)1 concentration,"[1]; 0.625 TAME Units, 5 min",248.4 µM
same,(GR)2 concentration,"[1]; 0.625 TAME Units, 5 min",114.9 µM
same,(GR)4 concentration,"[1]; 0.625 TAME Units, 5 min",0.3 µM
same,(GR)6 concentration,"[1]; 0.625 TAME Units, 5 min",0.1 µM
same,(GR)8 concentration,"[1]; 0.625 TAME Units, 5 min",BLQ
same,(GR)10 concentration,"[1]; 0.625 TAME Units, 5 min",3.1 µM
same,(GR)1 concentration,"[1]; 0.625 TAME Units, 10 min",307.0 µM
same,(GR)2 concentration,"[1]; 0.625 TAME Units, 10 min",89.6 µM
same,(GR)4 concentration,"[1]; 0.625 TAME Units, 10 min",0.2 µM
same,(GR)6 concentration,"[1]; 0.625 TAME Units, 10 min",BLQ
same,(GR)8 concentration,"[1]; 0.625 TAME Units, 10 min",BLQ
same,(GR)10 concentration,"[1]; 0.625 TAME Units, 10 min",2.1 µM
same,(GR)1 concentration,"[1]; 0.625 TAME Units, 30 min",411.7 µM
same,(GR)2 concentration,"[1]; 0.625 TAME Units, 30 min",11.8 µM
same,(GR)4 concentration,"[1]; 0.625 TAME Units, 30 min",0.1 µM
same,(GR)6 concentration,"[1]; 0.625 TAME Units, 30 min",BLQ
same,(GR)8 concentration,"[1]; 0.625 TAME Units, 30 min",BLQ
same,(GR)10 concentration,"[1]; 0.625 TAME Units, 30 min",0.6 µM
same,(GR)1 concentration,"[1]; 0.625 TAME Units, 60 min",465.4 µM
same,(GR)2 concentration,"[1]; 0.625 TAME Units, 60 min",5.6 µM
same,(GR)4 concentration,"[1]; 0.625 TAME Units, 60 min",BLQ
same,(GR)6 concentration,"[1]; 0.625 TAME Units, 60 min",BLQ
same,(GR)8 concentration,"[1]; 0.625 TAME Units, 60 min",BLQ
same,(GR)10 concentration,"[1]; 0.625 TAME Units, 60 min",1.0 µM
same,(GR)1 concentration,"[1]; 0.625 TAME Units, 120 min",385.8 µM
same,(GR)2 concentration,"[1]; 0.625 TAME Units, 120 min",1.0 µM
same,(GR)4 concentration,"[1]; 0.625 TAME Units, 120 min",BLQ
same,(GR)6 concentration,"[1]; 0.625 TAME Units, 120 min",BLQ
same,(GR)8 concentration,"[1]; 0.625 TAME Units, 120 min",BLQ
same,(GR)10 concentration,"[1]; 0.625 TAME Units, 120 min",0.1 µM
same,(GR)1 concentration,"[1]; 6.25 TAME Units, 0 min",0.2 µM
same,(GR)2 concentration,"[1]; 6.25 TAME Units, 0 min",0.2 µM
same,(GR)4 concentration,"[1]; 6.25 TAME Units, 0 min",0.1 µM
same,(GR)6 concentration,"[1]; 6.25 TAME Units, 0 min",BLQ
same,(GR)8 concentration,"[1]; 6.25 TAME Units, 0 min",BLQ
same,(GR)10 concentration,"[1]; 6.25 TAME Units, 0 min",32.7 µM
same,(GR)1 concentration,"[1]; 6.25 TAME Units, 5 min",391.0 µM
same,(GR)2 concentration,"[1]; 6.25 TAME Units, 5 min",1.2 µM
same,(GR)4 concentration,"[1]; 6.25 TAME Units, 5 min",BLQ
same,(GR)6 concentration,"[1]; 6.25 TAME Units, 5 min",BLQ
same,(GR)8 concentration,"[1]; 6.25 TAME Units, 5 min",BLQ
same,(GR)10 concentration,"[1]; 6.25 TAME Units, 5 min",0.9 µM
same,(GR)1 concentration,"[1]; 6.25 TAME Units, 10 min",505.5 µM
same,(GR)2 concentration,"[1]; 6.25 TAME Units, 10 min",3.8 µM
same,(GR)4 concentration,"[1]; 6.25 TAME Units, 10 min",0.1 µM
same,(GR)6 concentration,"[1]; 6.25 TAME Units, 10 min",BLQ
same,(GR)8 concentration,"[1]; 6.25 TAME Units, 10 min",BLQ
same,(GR)10 concentration,"[1]; 6.25 TAME Units, 10 min",1.6 µM
same,(GR)1 concentration,"[1]; 6.25 TAME Units, 30 min",480.2 µM
same,(GR)2 concentration,"[1]; 6.25 TAME Units, 30 min",0.2 µM
same,(GR)4 concentration,"[1]; 6.25 TAME Units, 30 min",BLQ
same,(GR)6 concentration,"[1]; 6.25 TAME Units, 30 min",BLQ
same,(GR)8 concentration,"[1]; 6.25 TAME Units, 30 min",BLQ
same,(GR)10 concentration,"[1]; 6.25 TAME Units, 30 min",0.9 µM
same,(GR)1 concentration,"[1]; 6.25 TAME Units, 60 min",409.6 µM
same,(GR)2 concentration,"[1]; 6.25 TAME Units, 60 min",0.1 µM
same,(GR)4 concentration,"[1]; 6.25 TAME Units, 60 min",BLQ
same,(GR)6 concentration,"[1]; 6.25 TAME Units, 60 min",BLQ
same,(GR)8 concentration,"[1]; 6.25 TAME Units, 60 min",BLQ
same,(GR)10 concentration,"[1]; 6.25 TAME Units, 60 min",0.2 µM
same,(GR)1 concentration,"[1]; 6.25 TAME Units, 120 min",396.0 µM
same,(GR)2 concentration,"[1]; 6.25 TAME Units, 120 min",0.2 µM
same,(GR)4 concentration,"[1]; 6.25 TAME Units, 120 min",BLQ
same,(GR)6 concentration,"[1]; 6.25 TAME Units, 120 min",0.1 µM
same,(GR)8 concentration,"[1]; 6.25 TAME Units, 120 min",BLQ
same,(GR)10 concentration,"[1]; 6.25 TAME Units, 120 min",0.1 µM
same,Activity,[2],555 TAME units/mL of gel
B2,Activity,[2],308 TAME units/mg of protein
B3,Effect of protease treatment of (GR)10 on (GR)10 toxicity,[3],abrogation of (GR)10 toxicity
